Series [1] in a line: melting temperature; UV melt of duplexes.
A short description of series [2]: melting temperature; melt of duplexes. To be noted: sodium 0.0675 M; strand 1 µM.

Usually Tm stands for the temperature at which the thermal transition is half complete. For “GCGGGCGAGGATCCAGCGCGCG+CGCGCGCTGGATCCTCGCCCGC ((((((((((((((((((((((+))))))))))))))))))))))”, the Tm in series [1] (sodium 0.12 M, strand 5.3 µM) is 77.2 °C.

For the substance “ATGGGTGGGAGCCTCGGTAGCAGCC+GGCTGCTACCGAGGCTCCCACCCAT (((((((((((((((((((((((((+)))))))))))))))))))))))))”, the midpoint of thermal melting (Tm) worked out at 70.7 °C in series [1] (sodium 0.07 M, strand 2 µM); 74.5 °C in series [1] (sodium 0.12 M, strand 2 µM); 78.2 °C in series [1] (sodium 0.22 M, strand 2 µM); 81.6 °C in series [1] (sodium 0.62 M, strand 2 µM); 83.4 °C in series [1] (sodium 1.02 M, strand 2 µM). Consider “AACGCGTGAATTCTGGCCAA+TTGGCCAGAATTCACGCGTT ((((((((((((((((((((+))))))))))))))))))))”, for which the Tm in series [1] (sodium 0.12 M, strand 6 µM) was determined as 66.6 °C. As to “CGACGTGCCCGATGTGCTG+CAGCACATACTGCACGTCG ((((((((...((((((((+))))))))...))))))))”, the melting temperature (Tm) in series [2] was determined as 48.7 °C. In the case of “CGACGTGCACAATGTGCTG+CAGCACATCTAGCACGTCG ((((((((...((((((((+))))))))...))))))))”, in series [2], the Tm was found to be 45.9 °C. On the same count and under the same terms, the result for “CGACGTGCGACATGTGCTG+CAGCACATGGTGCACGTCG ((((((((..(((((((((+)))))))))..))))))))” reads 57.3 °C; that for “CGACGTGCATGATGTGCTG+CAGCACATAGCGCACGTCG ((((((((...((((((((+))))))))...))))))))”, 47.4 °C.

For the substance “CGACGTGCGGCATGTGCTG+CAGCACATCCCGCACGTCG ((((((((((.((((((((+)))))))).))))))))))”, the Tm in series [2] was found to be 58.3 °C. Same read-out and setting: the same measure for “CGACGTGCAGCATGTGCTG+CAGCACATCGCGCACGTCG ((((((((...((((((((+))))))))...))))))))”: 51.6 °C; for “CGACGTGCGTCATGTGCTG+CAGCACATTTCGCACGTCG (((((((((..((((((((+))))))))..)))))))))”: 53.1 °C.

For “CGACGTGCTACATGTGCTG+CAGCACATAACGCACGTCG ((((((((...((((((((+))))))))...))))))))”, the Tm in series [2] is 49 °C. For “CGACGTGCCAGATGTGCTG+CAGCACATCGAGCACGTCG ((((((((..(((((((((+)))))))))..))))))))”, the melting temperature (Tm) in series [2] worked out at 56.2 °C. “CGACGTGCGAGATGTGCTG+CAGCACATGGTGCACGTCG ((((((((...((((((((+))))))))...))))))))”: the Tm in series [2] came to 48.5 °C. “CGACGTGCAAAATGTGCTG+CAGCACATCGCGCACGTCG ((((((((...((((((((+))))))))...))))))))”: the Tm in series [2] stood at 48.9 °C. “CGACGTGCGGTATGTGCTG+CAGCACATTTGGCACGTCG ((((((((...((((((((+))))))))...))))))))”: the midpoint of thermal melting (Tm) in series [2] stood at 49.9 °C.

“CGACGTGCGGCATGTGCTG+CAGCACATGCCGCACGTCG (((((((((((((((((((+)))))))))))))))))))”: the Tm in series [2] was found to be 68.9 °C. As for “CGACGTGCCATATGTGCTG+CAGCACATAAGGCACGTCG (((((((((.(((((((((+))))))))).)))))))))”, the Tm in series [2] came out at 56.9 °C.

Consider “CGACGTGCTAAATGTGCTG+CAGCACATTTGGCACGTCG ((((((((.((((((((((+)))))))))).))))))))”, for which the melting temperature (Tm) in series [2] was found to be 57.9 °C.

Regarding “CGACGTGCTTCATGTGCTG+CAGCACATTCGGCACGTCG ((((((((...((((((((+))))))))...))))))))”, the Tm in series [2] stood at 48.1 °C. Still for that read-out and setting: the result for “CGACGTGCAACATGTGCTG+CAGCACATCATGCACGTCG (((((((((..((((((((+))))))))..)))))))))” reads 49 °C; that for “CGACGTGCCGCATGTGCTG+CAGCACATGGAGCACGTCG ((((((((..(((((((((+)))))))))..))))))))”, 55.1 °C.

Turning to “CGACGTGCGTAATGTGCTG+CAGCACATATGGCACGTCG ((((((((...((((((((+))))))))...))))))))”, the Tm in series [2] was determined as 51 °C. In the case of “CGACGTGCCCCATGTGCTG+CAGCACATCGGGCACGTCG ((((((((((.((((((((+)))))))).))))))))))”, the melting temperature (Tm) in series [2] is 57.2 °C.

On to “CGACGTGCAGGATGTGCTG+CAGCACATGGGGCACGTCG ((((((((...((((((((+))))))))...))))))))”, for which the Tm in series [2] amounted to 50.4 °C. Consider “CGACGTGCCTGATGTGCTG+CAGCACATTCGGCACGTCG (((((((((..((((((((+))))))))..)))))))))”, for which the midpoint of thermal melting (Tm) in series [2] stood at 54.7 °C.

In the case of “CGACGTGCTGAATGTGCTG+CAGCACATAGGGCACGTCG ((((((((...((((((((+))))))))...))))))))”, the Tm in series [2] was determined as 50.7 °C.

On to “CGACGTGCGGGATGTGCTG+CAGCACATACCGCACGTCG ((((((((((.((((((((+)))))))).))))))))))”, for which, in series [2], the Tm came out at 63.1 °C. Take “CGACGTGCCAAATGTGCTG+CAGCACATCTAGCACGTCG ((((((((.(.((((((((+)))))))).).))))))))”: the midpoint of thermal melting (Tm) in series [2] was 49.3 °C. Turning to “CGACGTGCTAGATGTGCTG+CAGCACATGCTGCACGTCG ((((((((...((((((((+))))))))...))))))))”, the Tm in series [2] amounted to 49.3 °C. Consider “CGACGTGCATGATGTGCTG+CAGCACATGAGGCACGTCG ((((((((.(.((((((((+)))))))).).))))))))”, for which the Tm in series [2] is 52.6 °C. Consider “CGACGTGCTTCATGTGCTG+CAGCACATCGTGCACGTCG ((((((((...((((((((+))))))))...))))))))”, for which the Tm in series [2] was found to be 43.2 °C. On to “CGACGTGCCAAATGTGCTG+CAGCACATGCAGCACGTCG ((((((((...((((((((+))))))))...))))))))”, for which the melting temperature (Tm) in series [2] amounted to 52.7 °C.

With “CGACGTGCAGTATGTGCTG+CAGCACATAATGCACGTCG (((((((((.(((((((((+))))))))).)))))))))”, the Tm in series [2] stood at 57 °C. “CGACGTGCTAGATGTGCTG+CAGCACATGCGGCACGTCG ((((((((...((((((((+))))))))...))))))))”: the Tm in series [2] was 50.3 °C.

“CGACGTGCCCCATGTGCTG+CAGCACATTGCGCACGTCG ((((((((.(.((((((((+)))))))).).))))))))”: the Tm in series [2] is 48.2 °C.

For the substance “CGACGTGCTTAATGTGCTG+CAGCACATTATGCACGTCG ((((((((.((((((((((+)))))))))).))))))))”, the midpoint of thermal melting (Tm) in series [2] came to 56.5 °C. On the same count and under the same terms, the same measure for “CGACGTGCTTTATGTGCTG+CAGCACATGAGGCACGTCG ((((((((.(.((((((((+)))))))).).))))))))”: 52.8 °C; for “CGACGTGCTGTATGTGCTG+CAGCACATATCGCACGTCG ((((((((..(((((((((+)))))))))..))))))))”: 50.9 °C. As for “CGACGTGCCAGATGTGCTG+CAGCACATTTGGCACGTCG ((((((((((.((((((((+)))))))).))))))))))”, the melting temperature (Tm) in series [2] amounted to 59.3 °C. On to “CGACGTGCCTAATGTGCTG+CAGCACATGCGGCACGTCG (((((((((..((((((((+))))))))..)))))))))”, for which the Tm in series [2] is 53.3 °C.

Values taken from the array DNA melting data of Ke et al..
